Values quoted from earlier work as cited in article PMC6281825.

Molecular target: Complement C5 (Homo sapiens) (UniProt P01031)

Kd: 100 pM
Substance: eculizumab
